Data published in the nanobody polyreactivity screen of Harvey et al. (2022).

test: yeast display, Sf9 membrane polyspecificity reagent, FACS + sequencing; frameworks hold sequencing errors
Summary of the method: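 Genes from sorted yeast were amplified by colony PCR, read by MiSeq 2 × 250 sequencing and filtered on CDR length. These cells carried a synthetic nanobody library in Saccharomyces cerevisiae BJ5465 and were sorted by FACS into low and high (top ~1%) gates on anti-HA and streptavidin fluorescence. Polyreactivity is labelled according to the gate of origin.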

Sequence | polyreactivity (PSR sort gate)
QVQLVESGGGLVQAGGSLRLSCAASGRTIYQYAMGWYRQAPGKERELVAAITDNGGRTYYADSVKGRFTISCDNAKNTVYLQMNSLKPEDTAVYYCAAEIWTYSYYVVDNGPYDYWGQGTQVTVSS | low polyreactivity
QVQLVESGGGLVQAGGSLRLSCAASGRTIYYYAMGGYRQAPGKEREFVAAISWHGGSTYYADSVKGRFTISRDNAKNTVYLQMNSLKPEDTAVYYCAAERYDRVGFDYWGQGTQVTVSS | low polyreactivity
QVQLVESGGGLVQAGGSLRLSCAASGRTLAFNAMGWYRQAPGKERELVAVIRNGTSTNYADSVKGRFTISRDNAKNTVYLQMNSLKPEDTAVYYCNVPYYLPSYLSGYDYWGQGTQVTVSS | low polyreactivity
QVQLVESGGGLVQAGGSLRLSCAASGRTLAPYAMGWYRQAPGKERELVAISTIGGSTYYADSVKGRFTISRDNAKNTVYLQMNSLKPEETAVYYGAADGNSTGVYLAGGEGFAYDYWGQVTQVTVSS | low polyreactivity
QVQLVESGGGLVQAGGSLRLSCAASGRTLASNAMGWYRQAPGKEREFVAAITDSGGRTYYADSVKGRFTISRDNAKNTVYLQMNSLKPEDTAVYYCNAYQYYERYDTYLFRYDYWGQGTQVTVSS | low polyreactivity
QVQLVESGGGLVQAGGSLRLSCAASGRTLATYAMGWYRQAPGKERELVADISWRGGTTYYADSVKGRFTISRDNAKNTVYLQMNSLKPEDTAVYYCAAVRKQGSGFDYWGQGTQVTLSS | high polyreactivity
QVQLVESGGGLVQAGGSLRLSCAASGRTLDKYAIGWYRQAPGKERELVAAITSGGTTKYADSVKGRFTISRDNAKNTVYLQMNSLKPEVTAVYYCAKDLEGNPHFSYGIDFDYWGQGTQVTVSS | low polyreactivity
QVQLVESGGGLVQAGGSLRLSCAASGRTLDKYAMGWYRQAPGKERELVAAITSGGSTNYADSVKGRFTISRDNAKNTVYLQMNSLKPEDTAVYYCAKDLQGNPHFSYGIDFDYWGQGTQVTVSS | low polyreactivity
QVQLVESGGGLVQAGGSLRLSCAASGRTLEDYVMGWYRQAPGKERELVAAISWSGVSTYYADSVKGRFTISRDNEKNTVYLQMNSLKPEDTAVYYCAKDSTADELTGFDYWGQGTQVNVSS | low polyreactivity
QVQLVESGGGLVQAGGSLRLSCAASGRTLFHYAMGWYRQAPGKERELVAAIRNSDGSTYYADSVKGRFTISRDNAKNTVYLQMNSLKPEDTAVYYCAAVRRYHSYPDGGYWGQGTQVTVSS | high polyreactivity
QVQLVESGGGLVQAGGSLRLSCAASGRTLGGYAMGWYIQATGKERELVAAITRRGGSTYYADSVKGRFTISRDNAKNTVYLQMNSLKPEDTAVYYCAARWYARSLTRFNYWGQGTQVTVSS | high polyreactivity
QVQLVESGGGLVQAGGSLRLSCAASGRTLGGYTMGWYRQAPGKEREVVAGISFRGDSTYYADSVKGRFTLSRANAKNTVYLQMNSLKPEDTAVYYCNARGTPWRYGGDYWGQGTQVTVSS | low polyreactivity
QVQLVESGGGLVQAGGSLRLSCAASGRTLGRYAMGWYRQAPGKERELVAAMNVGGGTTHYADSVKGRFTISRDNAKNTVYLQMNSLKPEDTAVYYCAAYRYTYGDRHAYDYWGQGTQVTVSS | low polyreactivity
QVQLVESGGGLVQAGGSLRLSCAASGRTLGYYAMGWYRQAPGTERELVAAISGSGGITYYADSVKGRFTISRDNAKNTVYLQMNSLKPEDTAVYFCNVDPTAKWFNYDSWGQGTQVTVSS | low polyreactivity
QVQLVESGGGLVQAGGSLRLSCAASGRTLHAYTMGWYRQAPGSERELVAAITRGGGNTYYADSVKGRFTISRDNAKNTVYLQLNSLKPEDTAVYYCNAAVSGYLSYEYDYWGQGTQVTVSS | low polyreactivity
QVQLVESGGGLVQAGGSLRLSCAASGRTLHYYAMGWYRQAPGKERELVAAISARVGRTYYADSVKGRFTISRDNAKNTVYLQMNSLKPEDTEVYYCAAAGYITRYDRYDYWGQGTQVTVSS | high polyreactivity
QVQLVESGGGLVQAGGSLRLSCAASGRTLIAYAMGWYRQAHGKEREFVAAIRADDGRTYYADSVKGRFTISRDNAKNTVYFQMNSLKPEDTAVYYCDTKADKRYRFGYWGQGTQVTVSS | high polyreactivity
QVQLVESGGGLVQAGGSLRLSCAASGRTLIYNVMGWYRQAPGKERELVAAITNGGSTYYADSVKGRFTISRDNAKNTVYLQMNSLKPEDTAVYYCATRYGKTYWGQGNQVTVSS | high polyreactivity
QVQLVESGGGLVQAGGSLRLSCAASGRTLKYNAKGGNRQAPGKARELVAALTNSGTRTYYADSVKGRFTISRDNAKNTVYLQMNSQKPEDTAVYYCAKDSYPYLRVGHLKYRVKTYGHWGQGTQVTVSS | high polyreactivity
QVQLVESGGGLVQAGGSLRLSCAASGRTLKYYAMGWYRQAPGKERELVAAITWSGTRTFYADSVKGRFTISRDNAKNTVYLQMNSLKPEDTAVYYCARTYYGGAGYEYWGQVTQVTVSS | high polyreactivity

Sequence | polyreactivity (PSR sort gate)
QVQLVESGGGLVQAGGSLRLSCAASGRTLNNNAMGWYRQAPGKERELVAAISRSGGRTYYADSVKGRFTISRDNAKNTVYLQMNSLKPEDTAVYYCAAVNIRFGYADRFYYVYRGDEWGQGTQVTVSS | high polyreactivity
QVQLVESGGGLVQAGGSLRLSCAASGRTLNWYAMGWYRQAPGKERELVAVINLSGGRTYYADSVKGRFTISRDNAKNTVYLQMNSLKPEDTAVYYCNAPSVWERSYEKYDYWGQATQVTVSS | low polyreactivity
QVQLVESGGGLVQAGGSLRLSCAASGRTLPKYVLGWYRQSPGKERELVAAISSSGDSTYYADSVNGRFTISRDNAKNTVYLQMNILKPEDTAVYYCDKYDRNTYGYWGQGTQVTVST | low polyreactivity
QVQLVESGGGLVQAGGSLRLSCAASGRTLPSYSMGCYREAPGKERELFAAITGSGGRTYYADSVKGRFTISRDNAKNSVYLQMNSLKPEDTAVYYCNAYSRTWYARSYYYWGQGTQVTVSS | high polyreactivity
QVQLVESGGGLVQAGGSLRLSCAASGRTLQQYVMGWYRQAPGQERELVAAITRGGRTNYADSVKGRFTISRDNAKNTVYLQMNSLNPEDTAVYYCNTRYPSRLVAWLDYWGQGTQVTVSS | low polyreactivity
QVQLVESGGGLVQAGGSLRLSCAASGRTLRGYAMGWYRQAPGKERELVAAISKGGGSTFYADSVKGRFTISRDNAKNTVYLQMNSLKPEDTAVYYCAADYYSYTYYLDFDYWGQGTQVTVSS | high polyreactivity
QVQLVESGGGLVQAGGSLRLSCAASGRTLRGYAMGWYRQAPGKERELVAAITWSGGSTYYADSVKGRFTISRDNAKNTVYLQMNSLKPEDTAVYYCNARSYPDLYDYWGQGTQVTVSS | low polyreactivity
QVQLVESGGGLVQAGGSLRLSCAASGRTLRKYAMGWYRQAPGKERELVAGFTGSAGSTYYADSVKGRFTISRDNAKNTVYLQMNSLKPEDTAVYYCAKSGLRYGFDYWGQGTQVTVSS | high polyreactivity
QVQLVESGGGLVQAGGSLRLSCAASGRTLRRYAMGWYRQAPGKERELVAAISRSGSSTYADSVKGRFTISRDNAKNTVSLQMNSLKPEDTAVYYCNAYQPRYGYWGQGTQVTVSS | high polyreactivity
QVQLVESGGGLVQAGGSLRLSCAASGRTLRSNAMGWYRQAPGKERELVAAISSNGGSTYYADSVKGRFTISRDNAKNTVYLQMNSLKPEDTAVYYCAALSYYYSDRMDYWGQGTQVSVSS | low polyreactivity
QVQLVESGGGLVQAGGSLRLSCAASGRTLRTYAMGWSRQAPGKERELVAAITSSGGRTYYADSVKGRFTISRDNAKNTVYLQMNSLKPEDTAVYYCAAARYYYGGDYWGQGTQVTVSS | high polyreactivity
QVQLVESGGGLVQAGGSLRLSCAASGRTLRTYGMGWYRQAPGKERELVARITIGGRTYYADSVKGRFTISRDNAKNTVYLQMNSLKPEDTAVYYCAARYAGGTSRILYGYWGQGTQVTVSS | high polyreactivity
QVQLVESGGGLVQAGGSLRLSCAASGRTLRWYAMGWYRQAPGKERELVAAINWSGTSTYYADSVKGRFTISRDNAKNTVYLQMNSLKPEDTAVYYCAKRVTWNYDWGQGTQVTVSS | high polyreactivity
QVQLVESGGGLVQAGGSLRLSCAASGRTLRYNTMGWYRQAPGKERELVAAITRSGTGTNYADSVKGRFTISRDNAKNTVYLQMNSLKPEDTAVYYCAAAPFPRRRYDYWGQGTQVTVSS | high polyreactivity
QVQLVESGGGLVQAGGSLRLSCAASGRTLRYYDMGWYRQEPGKEREIVAAISWSGVSTYYADSVKGRFTISRDNAKNTVYLQMNSMQPEDTAVYYCAVGYVLTGVFEARFDYWGQGTLVTVSS | high polyreactivity
QVQLVESGGGLVQAGGSLRLSCAASGRTLSNYAMGWSRQAPGKETELVAAISSSGSTNYADSVKGRFTISRDNAKNTVYLQMNSLKPEDTAVYYCAAESWFLRWYRYDYWGQGTQVSVSS | low polyreactivity
QVQLVESGGGLVQAGGSLRLSCAASGRTLSRYTMGWYRQAPGKERELVAAISTSGSTYYADSVKGRFTISRDNAKNTVYLQMNSLKPEDTAVYYCNAVRRYLQYATGYDYWGQGTQVTVSS | high polyreactivity
QVQLVESGGGLVQAGGSLRLSCAASGRTLSVYAMGWYRQAPGKERELVAAITWRGGSTYYADSVKGRFTISRDNAKNTVYLQMNSLKPEDTAVYYCAAEDYTYNGGGYEYWGQGTQVTVSS | low polyreactivity
QVQLVESGGGLVQAGGSLRLSCAASGRTLSVYAMGWYSQAPGKEMEFVAAISFSGGSTYYADSVKGRFTISRDNAKNTVYLQMNSQKPEDTAVYYCATAYPEFLSTTVGLLYLDDYWGQGTQVTVSS | low polyreactivity
QVQLVESGGGLVQAGGSLRLSCAASGRTLSYYAMGWYRQAPGKEREFVAAINWSGGSTYYADSVKGRFTISRDNAKNTVYLQMISLKPEDTAVYYCAAYRPYSSSEGDYWGQGTQVTVSS | high polyreactivity
